We go through 1 variant from IntAct's records for PubMed 11956200.

To fix the notation:
B1: Mitochondrial import inner membrane translocase subunit Tim8 A (Homo sapiens), O60220 (parent)
chain: MDSSSSSSAAGLGAVDPQLQHFIEVETQKQRFQQLVHQMTELCWEKCMDKPGPKLDSRAEACFVNCVERFIDTSQFILNRLEQTQKSKPVFSESLSD
partner: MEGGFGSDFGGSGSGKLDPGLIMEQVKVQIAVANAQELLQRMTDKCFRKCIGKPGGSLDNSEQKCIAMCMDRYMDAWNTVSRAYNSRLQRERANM

Variants of B1 are the subject of this assay. The note with it: with tim13_human TIMM13, Q9Y5L4.
Turning to C66W, the “effect of a mutation on the interaction” value was “disrupting interaction strength”.
